Data: patent publication US11180770B2, “HPPD variants and methods of use” (BASF Agricultural Solutions Seed US LLC, priority 2017, dated 2021)
Numbering of substitutions follows the chain as printed.

B1: SEQ ID NO:2 (protein)
chain: MADLYENPMGLMGFEFIEFASPTPGTLEPIFEIMGFTKVATHRSKNVHLYRQGEINLILNNEPNSIASYFAAEHGPSVCGMAFRVKDSQKAYNRALELGAQPIHIDTGPMELNLPAIKGIGGAPLYLIDRFGEGSSIYDIDFVYLEGVERNPVGAGLKVIDHLTHNVYRGRMVYWANFYEKLFNFREARYFDIKGEYTGLTSKAMSAPDGMIRIPLNEESSKGAGQIEEFLMQFNGEGIQHVAFLTDDLVKTWDALKKIGMRFMTAPPDTYYEMLEGRLPDHGEPVDQLQARGILLDGSSVEGDKRLLLQIFSETLMGPVFFEFIQRKGDDGFGPWNFAQLFESIERDQVRRGVLTAD
modifications: mutant HPPD polypeptide
B2: 58 (protein)
chain: B1 chain with P268A, T270S, W336D, N337S, A339K, Q340V
modifications: mutant HPPD polypeptide
B3: SEQ ID NO:71 (protein)
chain: B1 chain with P215L, W336F, A339K, Q340E
modifications: mutant HPPD polypeptide
B4: SEQ ID NO:3 (protein)
chain: B1 chain with P268A, W336D, N337S, A339K, Q340V
modifications: mutant HPPD polypeptide
B5: 64 (protein)
chain: B1 chain with P268A, T270S, W336H, N337S, A339K, Q340V, S344Q, I345M
modifications: mutant HPPD polypeptide
B6: 55 (protein)
chain: B1 chain with P268A, T270N, W336H, N337S, A339K, Q340V, I345K
modifications: mutant HPPD polypeptide
B7: 61 (protein)
chain: B1 chain with P268A, T270S, W336H, N337S, A339K, Q340V
modifications: mutant HPPD polypeptide
B8: 62 (protein)
chain: B1 chain with P268A, T270S, W336H, N337S, A339K, Q340V, I345M
modifications: mutant HPPD polypeptide
B9: 57 (protein)
chain: B1 chain with P268A, T270N, W336H, N337S, A339K, Q340V, S344Q, I345K
modifications: mutant HPPD polypeptide
B10: SEQ ID NO: 24: mutant PfHPPD: 268A 335P 336H 337S 340V (protein)
chain: B1 chain with P268A, W336H, N337S, A339K, Q340V
modifications: mutant HPPD polypeptide
notes: mutant PfHPPD: 268A 335P 336H 337S 340V
B11: 49 (protein)
chain: B1 chain with T270N, W336H, N337S, A339K, Q340V, S344Q, I345M
modifications: mutant HPPD polypeptide
B12: 56 (protein)
chain: B1 chain with P268A, T270N, W336H, N337S, A339K, Q340V, S344Q
modifications: mutant HPPD polypeptide
B13: SEQ ID NO: 6: mutant PfHPPD: 268A 270N 335P 336D 337S 340V (protein)
chain: B1 chain with P268A, T270N, W336D, N337S, A339K, Q340V
modifications: mutant HPPD polypeptide
notes: mutant PfHPPD: 268A 270N 335P 336D 337S 340V
B14: 50 (protein)
chain: B1 chain with P268S, T270N, W336H, N337S, A339K, Q340V, S344Q, I345M
modifications: mutant HPPD polypeptide
B15: SEQ ID NO: 67: mutant PfHPPD: 213K 268A 270S 315R 335P 336H 337S 340V 344Q 345M (protein)
chain: B1 chain with R213K, P268A, T270S, T315R, W336H, N337S, A339K, Q340V, S344Q, I345M
modifications: mutant HPPD polypeptide
notes: mutant PfHPPD: 213K 268A 270S 315R 335P 336H 337S 340V 344Q 345M
B16: 51 (protein)
chain: B1 chain with P268A, T270N, W336D, N337S, A339K, Q340V, I345K
modifications: mutant HPPD polypeptide
B17: 63 (protein)
chain: B1 chain with R213K, P215A, P268A, T270S, W336H, N337S, A339K, Q340V, S344Q
modifications: mutant HPPD polypeptide
B18: 54 (protein)
chain: B1 chain with P268A, T270N, W336D, N337S, A339K, Q340V, S344Q, I345K
modifications: mutant HPPD polypeptide
B19: 59 (protein)
chain: B1 chain with P268A, T270S, W336D, N337S, A339K, Q340V, S344Q, I345K
modifications: mutant HPPD polypeptide
B20: 53 (protein)
chain: B1 chain with P268A, T270N, W336D, N337S, A339K, Q340V, S344Q, I345V
modifications: mutant HPPD polypeptide
B21: 60 (protein)
chain: B1 chain with M172I, V173D, P268A, T270S, W336D, N337S, A339K, Q340V, I345K
modifications: mutant HPPD polypeptide
B22: 65 (protein)
chain: B1 chain with P268A, T270S, T315R, W336H, N337S, A339K, Q340V, I345M
modifications: mutant HPPD polypeptide
B23: 46 (protein)
chain: B1 chain with P268G, T270N, W336H, N337S, A339K, Q340V, S344Q, I345V
modifications: mutant HPPD polypeptide
B24: 52 (protein)
chain: B1 chain with P268A, T270N, W336D, N337S, A339K, Q340V, S344Q
modifications: mutant HPPD polypeptide
B25: 47 (protein)
chain: B1 chain with P268A, T270N, W336H, N337S, A339K, Q340V, S344Q, I345M
modifications: mutant HPPD polypeptide
B26: 48 (protein)
chain: B1 chain with P268G, T270N, W336H, N337S, A339K, Q340V, S344Q, I345M
modifications: mutant HPPD polypeptide

System: HPPD polypeptides
Assay: coupled HPPD activity assay: turnover and residual turnover in crude extracts
Format: biochemical, Pseudomonas fluorescens
Settings: for Residual turnover: presence of 100 μM Cmpd. 1, changes in absorbance (OD) at 320 nm; for Residual turnover / Turnover: high substrate concentration; for Residual turnover [%]: 100 μM Cmpd. 1, signal change with inhibitor divided by signal change without inhibitor; for Turnover: absence of Cmpd. 1, kinetic changes in absorbance (OD) at 320 nm, 30 min; for turnover / residual turnover in the presence of Cmpd. 1 compared with a reference HPPD polypeptide, in words: comparison with the reference or parent polypeptide
Description: The activity of HPPD polypeptides was determined in absence or presence of HPPD inhibitors using the coupled HPPD activity assay (FIG. 1).
For the determination of the residual activity, the apparent kinetic constant (kapp) of the determined substrate conversion was measured as kinetic changes in absorbance (OD) at 320 nm in a coupled assay, in that homogentisate (HGA) formed by HPPD from HPP is directly converted into the well absorbing molecule maleylacetoacetate (MAA) by a second enzyme homogentisate dioxygenase (HGD), applied in excess uniformly in all assays (see FIG. 1). The measurements were performed in 384 micro titer plates (Greiner Bio-One GmbH, Frickenhausen, Germany) by plate readers (Tecan infinite M1000 or M1000PRO, Tecan, Männedorf, Switzerland). The kcat/kM ratio of an enzymatic activity is proportional to the apparent kinetic constant kapp and is proportional to kcat/kM*[E] ([E]=enzyme concentration). […] As both kapp measurements in the presence and absence of inhibitor were performed by use of the identical enzyme sample, crude or purified, and thereby at the same enzyme concentration, the enzyme concentration eliminates from the calculation of residual activity and the ratio of both kapp directly indicates the change of kM due to the inhibition.
The assay solution used for determination of residual activities in raw HPPD polypeptide samples was composed by 200 mM sodium phosphate (Merck, Darmstadt, Germany, pH 7.0), 5 mM MgCl2 (Merck, Darmstadt, Germany), 20 mM ascorbate (Sigma-Aldrich, St. Louis, USA), 1 mM DTT (Sigma-Aldrich, St. Louis, USA), 0.1% Pluronic F-68 (Sigma-Aldrich, St. Louis, USA), 40 μM FeSO4 (Sigma-Aldrich, St. Louis, USA), about 8 mg/ml purified HGD and 500 μM HPP from a 1 M stock solution in DMSO (Sigma-Aldrich, St. Louis, USA) and equilibrated for 20 min on ice. For every HPPD polypeptide sample two assays were performed in quadruplets, whereby 5 μl of HPPD polypeptide sample were mixed firstly with 5 μl buffer (1×BugBuster®; (Merck, Darmstadt, Germany); in 140 mM Tris, pH 7.8, with 1:25000 diluted BNase®; Qiagen, Hilden, Germany)) or 5 μl inhibitor diluted in the same buffer from a 0.1 M stock solution in DMSO (200 μM resulting in 100 μM in the HPPD polypeptide/inhibitor sample) in the reference and inhibition assay, respectively, and subsequently with 10 μl assay solution. The change in absorbance at 320 nm was followed in 1 min intervals for 30 min. The kapp values were calculated as signal slope over time in the early phase of the kinetic reaction, usually for the first 5-10 minutes of the measurements. Additionally and according to the calculated residual activity, the total conversion, i.e. the absolute change in signal, in the 30 min timeframe was monitored as measure of turnover, and a residual turnover was calculated by dividing the change in signal in the presence of inhibitor by the change in signal in the reference sample without inhibitor.
Residual turnover were determined according to Example 3 by measuring total change in signal in the presence and absence of Cmpd. 1 (2-chloro-3-(methylsulfanyl)-N-(1-methyl-1H-tetrazol-5-yl)-4-(trifluoromethyl)benzamide). For each mutant HPPD polypeptide, the total change in signal without HPPD inhibitor herbicides served for normalization of the total change in signal in the presence of the herbicide.

Molecule | Residual turnover | Residual turnover [%] | Turnover | turnover / residual turnover in the presence of Cmpd. 1 compared with a reference HPPD polypeptide, in words
B1 | 0.026 | – | – | –
B2 | 0.065 | 45% | 0.144 | –
B3 | 0.022 | – | – | –
B4 | – | – | – | improvement regarding residual turnovers
B5 | 0.114 | 47% | 0.242 | –
B6 | 0.095 | 50% | 0.189 | –
B7 | 0.091 | 40% | 0.229 | –
B8 | 0.115 | 37% | 0.308 | –
B9 | 0.099 | 59% | 0.167 | –
B10 | – | – | – | increase in the residual turnover
B11 | 0.103 | 33% | 0.316 | –
B12 | 0.086 | 57% | 0.152 | –
B13 | – | – | – | increase in the absolute turnover and absolute residual turnover
B14 | 0.138 | 44% | 0.315 | –
B15 | – | – | – | increase significantly the turnover and the residual turnover
B16 | 0.074 | 56% | 0.131 | –
B17 | 0.156 | 68% | 0.23 | –
B18 | 0.059 | 66% | 0.089 | –
B19 | 0.074 | 56% | 0.131 | –
B20 | 0.107 | 54% | 0.199 | –
B21 | 0.046 | 45% | 0.103 | –
B22 | 0.177 | 54% | 0.327 | –
B23 | 0.098 | 55% | 0.179 | –
B24 | 0.088 | 47% | 0.189 | –
B25 | 0.166 | 53% | 0.314 | –
B26 | 0.117 | 52% | 0.225 | –
